The target in this assay is T1, Human angiopoietin-2 (ANG-2) (human, UniProt O15123 19-496, limits assumed).
T1 construct: Bought (R&D Systems Cat. No. 623-AN) or produced in house; also called ANGPT2; huAngiopoietin-2
T1 sequence: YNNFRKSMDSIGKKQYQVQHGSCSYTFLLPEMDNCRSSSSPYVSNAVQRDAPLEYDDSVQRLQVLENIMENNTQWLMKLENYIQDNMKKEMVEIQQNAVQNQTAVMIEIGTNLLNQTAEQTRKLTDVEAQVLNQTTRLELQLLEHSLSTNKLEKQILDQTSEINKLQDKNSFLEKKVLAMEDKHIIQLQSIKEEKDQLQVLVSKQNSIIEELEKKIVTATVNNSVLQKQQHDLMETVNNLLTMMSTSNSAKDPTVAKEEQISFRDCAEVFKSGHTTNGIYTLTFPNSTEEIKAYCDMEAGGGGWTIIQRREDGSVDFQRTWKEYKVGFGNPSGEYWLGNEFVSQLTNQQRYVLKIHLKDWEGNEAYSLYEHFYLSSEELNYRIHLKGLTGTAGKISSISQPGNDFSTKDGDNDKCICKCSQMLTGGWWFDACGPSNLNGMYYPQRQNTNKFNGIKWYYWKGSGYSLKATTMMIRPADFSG
Kind of assay: ANG2/Tie2 receptor interaction ELISA (Experiment A): antibody dilutions pre-incubated with 0.2 ug/ml huAngiopoietin-2, coated human Tie2, bound ANG-2 detected. On the procedure:
Blocking of human ANG-2/human Tie2 interaction was shown by receptor interaction ELISA. 384-well Maxisorp plates (Nunc) were coated with 0.5 μg/ml human Tie2 (R&D Systems, UK, Cat. No. 313-TI or in house produced material) for 2 h at room temperature and blocked with PBS supplemented with 0.2% Tween-20 and 2% BSA (Roche Diagnostics GmbH, DE) for 1 h at room temperature under shaking. In the meantime, Dilutions of purified antibodies in PBS were incubated together with 0.2 μg/ml huAngiopoietin-1/2 (R&D Systems #923-AN/CF, R&D Systems, UK, Cat. No. 623-AN or in house produced material) for 1 hour at RT. After washing a mixture of 0.5 μg/ml biotinylated anti-Angiopoietin-1/2 clone (R&D Systems #BAF923, BAM0981 R&D Systems, UK) and 1:3000 diluted streptavidin HRP (Roche Diagnostics GmbH, DE, Cat. No. 11089153001) was added for 1 h. Thereafter the plates were washed 6 times with PBST. Plates were developed with freshly prepared ABTS reagent (Roche Diagnostics GmbH, DE, buffer #204 530 001, tablets #11 112 422 001) for 30 minutes at RT. Absorbance was measured at 405 nm.

B1: <ANG-2>Ang2i_LC06 (antibody, V domains shown)
VH: not shown
VL: QPGLTQPPSVSVAPGQTARITCGGNNIGSKSVHWYQQKPGQAPVLVVYDDSDRPSGIPERFSGSNSGNTATLTISRVEAGDEADYYCQVWDSSSDHYVFGTGTKVTVLG
notes: also called anti-ANG2 antibody
For B1, the IC50 is 0.1 nM.

The IC50 is the concentration needed to halve the response being measured.

The values are drawn from patent publication US20180134780A1 (Hoffmann-La Roche, published 2018).
